Experimental data taken from US20190270826A1 (Janssen / Centocor, published 2019).

T1: recombinant human IL1RAP ECD (human, UniProt Q9NPH3 21-367)
T1 construct: His-tagged; also called hIL1RAP-ECD; rhuIL1RAP
T1 sequence: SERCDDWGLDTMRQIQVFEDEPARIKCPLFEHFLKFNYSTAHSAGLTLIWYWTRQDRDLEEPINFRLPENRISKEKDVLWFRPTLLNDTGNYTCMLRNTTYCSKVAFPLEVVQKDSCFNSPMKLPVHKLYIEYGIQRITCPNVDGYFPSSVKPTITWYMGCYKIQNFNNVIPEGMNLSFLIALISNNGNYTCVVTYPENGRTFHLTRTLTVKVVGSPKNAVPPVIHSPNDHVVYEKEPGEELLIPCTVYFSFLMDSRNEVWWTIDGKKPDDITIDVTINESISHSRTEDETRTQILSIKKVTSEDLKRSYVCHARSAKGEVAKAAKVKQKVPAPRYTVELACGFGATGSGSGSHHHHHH

T2: recombinant cyno IL1RAP ECD (cynomolgus monkey, UniProt P59822 21-367 (rhesus entry))
T2 construct: also called rcynoIL1RAP
T2 sequence: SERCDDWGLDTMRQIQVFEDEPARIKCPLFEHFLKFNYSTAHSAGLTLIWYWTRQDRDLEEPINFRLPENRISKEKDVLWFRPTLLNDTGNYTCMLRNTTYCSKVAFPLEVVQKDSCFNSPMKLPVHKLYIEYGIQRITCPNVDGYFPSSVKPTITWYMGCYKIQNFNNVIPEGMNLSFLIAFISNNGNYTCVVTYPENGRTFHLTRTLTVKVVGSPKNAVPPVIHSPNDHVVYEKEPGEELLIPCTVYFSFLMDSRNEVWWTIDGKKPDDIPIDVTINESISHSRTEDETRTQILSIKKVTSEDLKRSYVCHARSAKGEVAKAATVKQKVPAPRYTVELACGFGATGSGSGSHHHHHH

T3: human IL1RAP on cells (endogenous) (human, UniProt Q9NPH3 21-570)
T3 sequence (looked up): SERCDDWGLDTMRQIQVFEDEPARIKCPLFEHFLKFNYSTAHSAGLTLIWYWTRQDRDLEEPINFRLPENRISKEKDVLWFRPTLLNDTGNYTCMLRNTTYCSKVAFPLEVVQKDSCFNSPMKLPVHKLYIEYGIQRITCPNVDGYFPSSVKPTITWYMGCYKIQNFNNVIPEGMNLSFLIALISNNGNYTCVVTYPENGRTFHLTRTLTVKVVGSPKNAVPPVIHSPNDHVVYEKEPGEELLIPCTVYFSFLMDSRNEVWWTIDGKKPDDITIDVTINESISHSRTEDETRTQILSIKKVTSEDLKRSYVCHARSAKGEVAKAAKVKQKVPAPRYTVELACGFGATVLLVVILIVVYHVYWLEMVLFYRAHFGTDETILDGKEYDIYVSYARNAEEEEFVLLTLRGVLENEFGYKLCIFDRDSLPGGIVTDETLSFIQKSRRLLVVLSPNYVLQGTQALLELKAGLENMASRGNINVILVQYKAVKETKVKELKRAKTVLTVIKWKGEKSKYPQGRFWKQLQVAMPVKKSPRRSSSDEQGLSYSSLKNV

B1: IC3B8 (bispecific antibody, human IgG4 S228P, kappa, lambda, F234A L235A)
heavy 1: EVQLVESGGGLVQPGGSLKLSCAASGFTFNTYAMNWVRQASGKGLEWVGRIRSKYNAYATYYAASVKGRFTISRDDSKNTAYLQMNSLKTEDTAVYYCTRHGNFGNSYVSWFAYWGQGTLVTVSSASTKGPSVFPLAPCSRSTSESTAALGCLVKDYFPEPVTVSWNSGALTSGVHTFPAVLQSSGLYSLSSVVTVPSSSLGTKTYTCNVDHKPSNTKVDKRVESKYGPPCPPCPAPEAAGGPSVFLFPPKPKDTLMISRTPEVTCVVVDVSQEDPEVQFNWYVDGVEVHNAKTKPREEQFNSTYRVVSVLTVLHQDWLNGKEYKCKVSNKGLPSSIEKTISKAKGQPREPQVYTLPPSQEEMTKNQVSLTCLVKGFYPSDIAVEWESNGQPENNYKTTPPVLDSDGSFLLYSKLTVDKSRWQEGNVFSCSVMHEALHNHYTQKSLSLSLGK
light 1: QAVVTQEPSLTVSPGGTVTLTCRSSTGAVTTSNYANWVQQKPGQAPRGLIGGTNKRAPGTPARFSGSLLGGKAALTLSGAQPEDEAEYYCALWYSNLWVFGGGTKLTVLGQPKAAPSVTLFPPSSEELQANKATLVCLISDFYPGAVTVAWKADSSPVKAGVETTTPSKQSNNKYAASSYLSLTPEQWKSHRSYSCQVTHEGSTVEKTVAPTECS
heavy 2: not shown
light 2: not shown
notes: IgG4-PAA, Fab arm exchange; also called IAPB23 x CD3B220
B2: IC3B13 (bispecific antibody, human IgG4 S228P, lambda, F234A L235A)
heavy 1: EVQLVESGGGLVQPGGSLKLSCAASGFTFNTYAMNWVRQASGKGLEWVGRIRSKYNAYATYYAASVKGRFTISRDDSKNTAYLQMNSLKTEDTAVYYCTRHGNFGNSYVSWFAYWGQGTLVTVSSASTKGPSVFPLAPCSRSTSESTAALGCLVKDYFPEPVTVSWNSGALTSGVHTFPAVLQSSGLYSLSSVVTVPSSSLGTKTYTCNVDHKPSNTKVDKRVESKYGPPCPPCPAPEAAGGPSVFLFPPKPKDTLMISRTPEVTCVVVDVSQEDPEVQFNWYVDGVEVHNAKTKPREEQFNSTYRVVSVLTVLHQDWLNGKEYKCKVSNKGLPSSIEKTISKAKGQPREPQVYTLPPSQEEMTKNQVSLTCLVKGFYPSDIAVEWESNGQPENNYKTTPPVLDSDGSFLLYSKLTVDKSRWQEGNVFSCSVMHEALHNHYTQKSLSLSLGK
light 1: QAVVTQEPSLTVSPGGTVTLTCRSSTGAVTTSNYANWVQQKPGQAPRGLIGGTNKRAPGTPARFSGSLLGGKAALTLSGAQPEDEAEYYCALWYSNLWVFGGGTKLTVLGQPKAAPSVTLFPPSSEELQANKATLVCLISDFYPGAVTVAWKADSSPVKAGVETTTPSKQSNNKYAASSYLSLTPEQWKSHRSYSCQVTHEGSTVEKTVAPTECS
heavy 2: not shown
light 2: QSALTQPRSVSGSPGHSVTISCTGTSSDVGDYNYVSWYQQRPGKVPKLLIYDVSKRPSGVPDRFSGSKSGNTASLTISGLQAEDEAIYFCASYAGNYNVVFGGGTKLTVLGQPKAAPSVTLFPPSSEELQANKATLVCLISDFYPGAVTVAWKADSSPVKAGVETTTPSKQSNNKYAASSYLSLTPEQWKSHRSYSCQVTHEGSTVEKTVAPTECS
notes: IgG4-PAA, Fab arm exchange; also called IAPB63 x CD3B220
B3: IC3B14 (bispecific antibody, human IgG4 S228P, lambda, F234A L235A)
heavy 1: EVQLVESGGGLVQPGGSLKLSCAASGFTFNTYAMNWVRQASGKGLEWVGRIRSKYNAYATYYAASVKGRFTISRDDSKNTAYLQMNSLKTEDTAVYYCTRHGNFGNSYVSWFAYWGQGTLVTVSSASTKGPSVFPLAPCSRSTSESTAALGCLVKDYFPEPVTVSWNSGALTSGVHTFPAVLQSSGLYSLSSVVTVPSSSLGTKTYTCNVDHKPSNTKVDKRVESKYGPPCPPCPAPEAAGGPSVFLFPPKPKDTLMISRTPEVTCVVVDVSQEDPEVQFNWYVDGVEVHNAKTKPREEQFNSTYRVVSVLTVLHQDWLNGKEYKCKVSNKGLPSSIEKTISKAKGQPREPQVYTLPPSQEEMTKNQVSLTCLVKGFYPSDIAVEWESNGQPENNYKTTPPVLDSDGSFLLYSKLTVDKSRWQEGNVFSCSVMHEALHNHYTQKSLSLSLGK
light 1: QAVVTQEPSLTVSPGGTVTLTCRSSTGAVTTSNYANWVQQKPGQAPRGLIGGTNKRAPGTPARFSGSLLGGKAALTLSGAQPEDEAEYYCALWYSNLWVFGGGTKLTVLGQPKAAPSVTLFPPSSEELQANKATLVCLISDFYPGAVTVAWKADSSPVKAGVETTTPSKQSNNKYAASSYLSLTPEQWKSHRSYSCQVTHEGSTVEKTVAPTECS
heavy 2: not shown
light 2: QSALTQPRSVSGSPGHSVTISCTGTSSDVGDYNYVSWYQQRPGKVPKLLIYDVSKRPSGVPDRFSGSKSGNTASLTISGLQAEDEAIYFCSSYAGNYNVVFGGGTKLTVLGQPKAAPSVTLFPPSSEELQANKATLVCLISDFYPGAVTVAWKADSSPVKAGVETTTPSKQSNNKYAASSYLSLTPEQWKSHRSYSCQVTHEGSTVEKTVAPTECS
notes: IgG4-PAA, Fab arm exchange; also called IAPB64 x CD3B220
B4: IC3B12 (bispecific antibody, human IgG4 S228P, kappa, lambda, F234A L235A)
heavy 1: EVQLVESGGGLVQPGGSLKLSCAASGFTFNTYAMNWVRQASGKGLEWVGRIRSKYNAYATYYAASVKGRFTISRDDSKNTAYLQMNSLKTEDTAVYYCTRHGNFGNSYVSWFAYWGQGTLVTVSSASTKGPSVFPLAPCSRSTSESTAALGCLVKDYFPEPVTVSWNSGALTSGVHTFPAVLQSSGLYSLSSVVTVPSSSLGTKTYTCNVDHKPSNTKVDKRVESKYGPPCPPCPAPEAAGGPSVFLFPPKPKDTLMISRTPEVTCVVVDVSQEDPEVQFNWYVDGVEVHNAKTKPREEQFNSTYRVVSVLTVLHQDWLNGKEYKCKVSNKGLPSSIEKTISKAKGQPREPQVYTLPPSQEEMTKNQVSLTCLVKGFYPSDIAVEWESNGQPENNYKTTPPVLDSDGSFLLYSKLTVDKSRWQEGNVFSCSVMHEALHNHYTQKSLSLSLGK
light 1: QAVVTQEPSLTVSPGGTVTLTCRSSTGAVTTSNYANWVQQKPGQAPRGLIGGTNKRAPGTPARFSGSLLGGKAALTLSGAQPEDEAEYYCALWYSNLWVFGGGTKLTVLGQPKAAPSVTLFPPSSEELQANKATLVCLISDFYPGAVTVAWKADSSPVKAGVETTTPSKQSNNKYAASSYLSLTPEQWKSHRSYSCQVTHEGSTVEKTVAPTECS
heavy 2: not shown
light 2: not shown
notes: IgG4-PAA, Fab arm exchange; also called IAPB55 x CD3B220

Experiments:
[1] = molecular target: T1, recombinant human IL1RAP ECD; assay: SPR; human KD over cyno KD
[2] = molecular target: T2, recombinant cyno IL1RAP ECD; assay: SPR, summary
[3] = molecular target: T1, recombinant human IL1RAP ECD; assay: SPR, summary
[4] = molecular target: T2, recombinant cyno IL1RAP ECD; assay: SPR
[5] = molecular target: T3, human IL1RAP on cells (endogenous); assay: cell-based or functional assay
[6] = molecular target: T2, recombinant cyno IL1RAP ECD; assay: SPR; remark: listed apart in the source
[7] = molecular target: T1, recombinant human IL1RAP ECD; assay: SPR
[8] = molecular target: T1, recombinant human IL1RAP ECD; assay: SPR; remark: listed apart in the source

Binder | Hu/Cyno KD Ratio [1] | Kd [2] | Kd [3] | Kd [4] | koff [4] | kon [4] | EC50, T-cell mediated cytotoxicity [5] | Kd [6] | Kd [7] | Kd [8] | koff [8] | kon [8]
B1 | 3.7 | 2.7 nM | 9.96 nM | 2.7 nM | 0.00121 s⁻¹ | 448000 M⁻¹ s⁻¹ | 0.138 nM | 2.7 nM | 9.96 nM | 9.96 nM | 0.00298 s⁻¹ | 300000 M⁻¹ s⁻¹
B2 | 0.3 | 0.451 nM | 0.122 nM | 0.451 nM | 0.000532 s⁻¹ | 1.18e+06 M⁻¹ s⁻¹ | 0.054 nM | 0.451 nM | 0.122 nM | 0.122 nM | 0.000114 s⁻¹ | 938000 M⁻¹ s⁻¹
B3 | 0.2 | 0.993 nM | 0.246 nM | 0.993 nM | 0.000858 s⁻¹ | 864000 M⁻¹ s⁻¹ | 0.1 nM | 0.993 nM | 0.246 nM | 0.246 nM | 0.000171 s⁻¹ | 695000 M⁻¹ s⁻¹
B4 | 1.4 | 0.218 nM | 0.313 nM | 0.218 nM | 0.000331 s⁻¹ | 1.52e+06 M⁻¹ s⁻¹ | 1.3 nM | 0.218 nM | 0.313 nM | 0.313 nM | 0.000361 s⁻¹ | 1.15e+06 M⁻¹ s⁻¹
